{"source": "patent US20260241018A1", "about": "(BIOCYTOGEN PHARMACEUTICALS BEIJING, published 2026)", "biological_target": "T1, monkey (Macaca fascicularis) 5T4 expressed on CHO-S cells (CHO-fas5T4 cells) (monkey (Macaca fascicularis), UniProt Q4R8Y9 35-355)", "T1 construct": "also called monkey 5T4", "T1 sequence": "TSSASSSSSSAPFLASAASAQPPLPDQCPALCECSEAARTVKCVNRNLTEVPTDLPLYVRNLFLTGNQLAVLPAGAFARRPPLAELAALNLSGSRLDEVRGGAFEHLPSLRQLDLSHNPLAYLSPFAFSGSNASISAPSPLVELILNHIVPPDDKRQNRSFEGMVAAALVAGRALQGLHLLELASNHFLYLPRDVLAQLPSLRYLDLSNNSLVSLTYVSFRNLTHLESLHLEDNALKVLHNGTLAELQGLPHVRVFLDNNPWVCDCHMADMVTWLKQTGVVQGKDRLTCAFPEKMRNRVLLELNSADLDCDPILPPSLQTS", "assay": "flow cytometry, CHO-fas5T4 cells; also: test concentration or dose not given here", "description": "CHO-h5T4 cells, CHO-m5T4 cells, CHO-fas5T4 cells or CHO-d5T4 cells were transferred to a 96-well plate at a density of 2×10⁵ cells/well respectively. The anti-5T4 antibodies were added to the 96-well plate, and incubated at 4° C. for 30 min. Then, the cells were incubated with the secondary antibody anti-hlgG-Fc-Alex Flour 647 (RL1-H) (Jackson ImmunoResearch Laboratories, Inc., Cat #: 109-606-170) at 4° C. in the dark for 15 minutes before flow cytometry analysis."}
{"binder": "32G1 (antibody, V domains shown, also called anti-5T4 antibody 32G1) VH: QVQLVQSGGGLVKPGGSLRLSCVASGFTFSDYYMNWVRQAPGKGLEWISYVGTESIYTYYADTVKGRFTISRDNAKNSLYLQMNSLRAEDTALYYCARARDYNLYGMDVWGQGTTVTVSS VL: not shown", "values": [{"measurement": "Percentage of Positive Cells", "value": 53.2, "unit": "%"}]}
